{
  "source": "the Human Domainome abundance scans (Beltran et al. 2025)",
  "parents": {"B1": {"name": "Lysine-specific demethylase 5C, residues 319 to 373; numbered along this chain, P41229 (parent)", "chain": "AQFIESYVCRMCSRGDEDDKLLLCDGCDDNYHIFCLLPPLPEIPKGVWRCPKCVM"}},
  "note": "± gives the uncertainty stated by the source.",
  "data": [
    {"variants_of": "B1", "assay": "abundance fitness (aPCA) (normalised: wild type 0, dead -1); higher = more abundant; growth selection in yeast, the domain comes from the species named", "conditions": "Homo sapiens", "values": [
      {"variant": "P39M", "abundance fitness": "-0.292 ± 0.18"},
      {"variant": "P39K", "abundance fitness": "0.148 ± 0.17"},
      {"variant": "P39A", "abundance fitness": "-0.018 ± 0.11"},
      {"variant": "P39F", "abundance fitness": "-0.667 ± 0.29"},
      {"variant": "P39I", "abundance fitness": "-0.076 ± 0.19"},
      {"variant": "L40F", "abundance fitness": "-0.678 ± 0.46"},
      {"variant": "P41C", "abundance fitness": "-0.185 ± 0.13"},
      {"variant": "P41E", "abundance fitness": "-0.278 ± 0.19"},
      {"variant": "P41K", "abundance fitness": "-0.092 ± 0.23"},
      {"variant": "P41Y", "abundance fitness": "-0.244 ± 0.22"},
      {"variant": "P41I", "abundance fitness": "-0.134 ± 0.47"},
      {"variant": "F3G", "abundance fitness": "0.022 ± 0.14"},
      {"variant": "F3D", "abundance fitness": "-0.418 ± 0.36"},
      {"variant": "F3H", "abundance fitness": "-0.095 ± 0.2"},
      {"variant": "F3E", "abundance fitness": "-0.114 ± 0.2"},
      {"variant": "F3P", "abundance fitness": "-0.141 ± 0.2"},
      {"variant": "F3R", "abundance fitness": "0.072 ± 0.12"},
      {"variant": "F3L", "abundance fitness": "0.005 ± 0.1"},
      {"variant": "K52N", "abundance fitness": "-0.032 ± 0.21"},
      {"variant": "K52G", "abundance fitness": "-0.024 ± 0.085"},
      {"variant": "K52Y", "abundance fitness": "-0.286 ± 0.24"},
      {"variant": "K52E", "abundance fitness": "-0.23 ± 0.15"},
      {"variant": "K52I", "abundance fitness": "0.006 ± 0.21"},
      {"variant": "K52V", "abundance fitness": "-0.123 ± 0.12"},
      {"variant": "K52A", "abundance fitness": "0.02 ± 0.12"},
      {"variant": "K52W", "abundance fitness": "-0.364 ± 0.16"},
      {"variant": "L21S", "abundance fitness": "-0.605 ± 0.09"},
      {"variant": "L21P", "abundance fitness": "-0.683 ± 0.098"},
      {"variant": "L21M", "abundance fitness": "-0.167 ± 0.14"},
      {"variant": "L21V", "abundance fitness": "-0.348 ± 0.11"},
      {"variant": "L21D", "abundance fitness": "-0.87 ± 0.26"},
      {"variant": "L21E", "abundance fitness": "-0.531 ± 0.27"},
      {"variant": "W48H", "abundance fitness": "-0.811 ± 0.37"},
      {"variant": "W48D", "abundance fitness": "-0.686 ± 0.46"},
      {"variant": "W48G", "abundance fitness": "-0.676 ± 0.14"},
      {"variant": "W48S", "abundance fitness": "-0.839 ± 0.15"},
      {"variant": "W48Q", "abundance fitness": "-0.566 ± 0.17"},
      {"variant": "W48M", "abundance fitness": "-0.671 ± 0.17"},
      {"variant": "W48R", "abundance fitness": "-0.611 ± 0.13"},
      {"variant": "W48C", "abundance fitness": "-1.15 ± 0.44"},
      {"variant": "M11H", "abundance fitness": "-0.281 ± 0.22"},
      {"variant": "M11D", "abundance fitness": "-0.063 ± 0.23"},
      {"variant": "M11A", "abundance fitness": "-0.079 ± 0.096"},
      {"variant": "M11K", "abundance fitness": "0.169 ± 0.13"},
      {"variant": "M11V", "abundance fitness": "-0.135 ± 0.12"},
      {"variant": "M11W", "abundance fitness": "-0.18 ± 0.13"},
      {"variant": "V8N", "abundance fitness": "0.083 ± 0.22"},
      {"variant": "V8S", "abundance fitness": "0.007 ± 0.1"},
      {"variant": "V8Q", "abundance fitness": "-0.11 ± 0.15"},
      {"variant": "V8W", "abundance fitness": "-0.247 ± 0.16"},
      {"variant": "V8T", "abundance fitness": "-0.039 ± 0.15"},
      {"variant": "V8F", "abundance fitness": "-0.28 ± 0.24"},
      {"variant": "C53P", "abundance fitness": "-0.744 ± 0.22"},
      {"variant": "C53S", "abundance fitness": "-0.835 ± 0.16"},
      {"variant": "C53T", "abundance fitness": "-0.939 ± 0.29"},
      {"variant": "G26Y", "abundance fitness": "-0.341 ± 0.22"},
      {"variant": "G26N", "abundance fitness": "-0.105 ± 0.2"},
      {"variant": "G26I", "abundance fitness": "-0.21 ± 0.18"},
      {"variant": "G26A", "abundance fitness": "0.161 ± 0.13"},
      {"variant": "G26T", "abundance fitness": "0.004 ± 0.16"},
      {"variant": "G26S", "abundance fitness": "-0.159 ± 0.11"},
      {"variant": "G26L", "abundance fitness": "-0.071 ± 0.1"},
      {"variant": "G26K", "abundance fitness": "0.133 ± 0.14"},
      {"variant": "G26P", "abundance fitness": "-0.799 ± 0.28"},
      {"variant": "G26C", "abundance fitness": "0.017 ± 0.25"},
      {"variant": "S6W", "abundance fitness": "-0.414 ± 0.18"},
      {"variant": "S6T", "abundance fitness": "0.148 ± 0.14"},
      {"variant": "S6M", "abundance fitness": "0.217 ± 0.13"},
      {"variant": "S6F", "abundance fitness": "-0.154 ± 0.14"},
      {"variant": "S6K", "abundance fitness": "-0.295 ± 0.25"},
      {"variant": "S6Y", "abundance fitness": "-0.1 ± 0.24"},
      {"variant": "F34S", "abundance fitness": "-0.029 ± 0.11"},
      {"variant": "F34L", "abundance fitness": "-0.157 ± 0.11"},
      {"variant": "F34N", "abundance fitness": "0.095 ± 0.23"},
      {"variant": "F34R", "abundance fitness": "0.067 ± 0.11"},
      {"variant": "F34Q", "abundance fitness": "-0.053 ± 0.21"},
      {"variant": "F34Y", "abundance fitness": "0.191 ± 0.16"},
      {"variant": "F34H", "abundance fitness": "-0.135 ± 0.18"},
      {"variant": "F34K", "abundance fitness": "0.28 ± 0.13"},
      {"variant": "D29N", "abundance fitness": "0.274 ± 0.24"},
      {"variant": "D29Y", "abundance fitness": "0.036 ± 0.26"},
      {"variant": "D29L", "abundance fitness": "-0.101 ± 0.19"},
      {"variant": "C12N", "abundance fitness": "-0.713 ± 0.37"},
      {"variant": "C12I", "abundance fitness": "-1.14 ± 0.32"}
    ]}
  ]
}
